B1: Speckle-type POZ protein (Homo sapiens), O43791 (parent)
chain: MSRVPSPPPPAEMSSGPVAESWCYTQIKVVKFSYMWTINNFSFCREEMGEVIKSSTFSSGANDKLKWCLRVNPKGLDEESKDYLSLYLLLVSCPKSEVRAKFKFSILNAKGEETKAMESQRAYRFVQGKDWGFKKFIRRDFLLDEANGLLPDDKLTLFCEVSVVQDSVNISGQNTMNMVKVPECRLADELGGLWENSRFTDCCLCVAGQEFQAHKAILAARSPVFSAMFEHEMEESKKNRVEINDVEPEVFKEMMCFIYTGKAPNLDKMADDLLAAADKYALERLKVMCEDALCSNLSVENAAEILILADLHSADQLKTQAVDFINYHASDVLETSGWKSMVVSHPHLVAEAYRSLASAQCPFLGPPRKRLKQS
partner: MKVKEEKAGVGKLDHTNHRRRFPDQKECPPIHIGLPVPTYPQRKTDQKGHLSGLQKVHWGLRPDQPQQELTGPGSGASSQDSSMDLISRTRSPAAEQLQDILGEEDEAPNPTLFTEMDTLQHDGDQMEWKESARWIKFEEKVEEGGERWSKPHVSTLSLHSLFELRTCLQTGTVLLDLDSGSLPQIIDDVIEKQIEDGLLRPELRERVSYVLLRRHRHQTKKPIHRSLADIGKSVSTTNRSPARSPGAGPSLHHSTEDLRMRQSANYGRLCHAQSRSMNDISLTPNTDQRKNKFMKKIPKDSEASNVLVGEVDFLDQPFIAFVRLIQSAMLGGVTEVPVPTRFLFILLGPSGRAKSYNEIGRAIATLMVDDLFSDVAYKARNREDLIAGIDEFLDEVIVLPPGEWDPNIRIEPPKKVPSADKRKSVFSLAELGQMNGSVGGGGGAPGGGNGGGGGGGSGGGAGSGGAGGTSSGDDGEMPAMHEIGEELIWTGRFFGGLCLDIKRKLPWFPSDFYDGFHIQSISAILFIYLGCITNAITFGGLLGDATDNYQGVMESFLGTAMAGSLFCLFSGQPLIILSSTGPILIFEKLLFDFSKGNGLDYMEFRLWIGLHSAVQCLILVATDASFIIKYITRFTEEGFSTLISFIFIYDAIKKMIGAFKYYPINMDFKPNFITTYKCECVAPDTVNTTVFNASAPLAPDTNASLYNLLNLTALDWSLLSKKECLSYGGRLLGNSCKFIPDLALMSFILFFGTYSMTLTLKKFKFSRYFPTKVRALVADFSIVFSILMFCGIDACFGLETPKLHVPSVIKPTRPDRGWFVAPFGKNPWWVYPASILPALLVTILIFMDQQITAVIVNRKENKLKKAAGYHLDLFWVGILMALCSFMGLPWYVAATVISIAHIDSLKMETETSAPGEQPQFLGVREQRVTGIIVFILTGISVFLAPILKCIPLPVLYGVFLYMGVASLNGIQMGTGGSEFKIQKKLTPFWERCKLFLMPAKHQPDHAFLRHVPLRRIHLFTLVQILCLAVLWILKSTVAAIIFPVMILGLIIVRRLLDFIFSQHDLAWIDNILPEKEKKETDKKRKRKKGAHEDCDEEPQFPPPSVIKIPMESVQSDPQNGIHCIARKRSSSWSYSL
B2: Speckle-type POZ protein (Homo sapiens), O43791 (parent)
chain: B1 chain
partner: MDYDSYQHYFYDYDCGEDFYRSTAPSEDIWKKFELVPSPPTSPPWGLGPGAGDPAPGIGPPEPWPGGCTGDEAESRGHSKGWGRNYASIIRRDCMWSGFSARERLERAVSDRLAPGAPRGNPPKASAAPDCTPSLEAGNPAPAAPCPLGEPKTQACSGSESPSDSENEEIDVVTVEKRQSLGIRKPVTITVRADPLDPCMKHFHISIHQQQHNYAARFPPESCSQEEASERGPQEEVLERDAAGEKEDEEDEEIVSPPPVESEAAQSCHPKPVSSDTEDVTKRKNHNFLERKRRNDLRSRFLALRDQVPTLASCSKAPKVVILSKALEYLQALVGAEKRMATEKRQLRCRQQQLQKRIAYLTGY
B3: Speckle-type POZ protein (Homo sapiens), O43791 (parent)
chain: B1 chain
partner: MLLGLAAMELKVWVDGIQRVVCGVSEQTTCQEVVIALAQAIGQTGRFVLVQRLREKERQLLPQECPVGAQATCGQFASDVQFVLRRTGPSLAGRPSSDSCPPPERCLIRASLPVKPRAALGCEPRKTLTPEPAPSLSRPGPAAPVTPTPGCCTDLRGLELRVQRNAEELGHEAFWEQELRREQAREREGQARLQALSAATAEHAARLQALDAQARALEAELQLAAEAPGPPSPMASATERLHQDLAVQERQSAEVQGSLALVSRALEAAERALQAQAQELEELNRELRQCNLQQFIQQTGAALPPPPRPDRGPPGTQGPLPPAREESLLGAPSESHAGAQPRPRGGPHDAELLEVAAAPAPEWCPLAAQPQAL
B4: Speckle-type POZ protein (Homo sapiens), O43791 (parent)
chain: B1 chain
partner: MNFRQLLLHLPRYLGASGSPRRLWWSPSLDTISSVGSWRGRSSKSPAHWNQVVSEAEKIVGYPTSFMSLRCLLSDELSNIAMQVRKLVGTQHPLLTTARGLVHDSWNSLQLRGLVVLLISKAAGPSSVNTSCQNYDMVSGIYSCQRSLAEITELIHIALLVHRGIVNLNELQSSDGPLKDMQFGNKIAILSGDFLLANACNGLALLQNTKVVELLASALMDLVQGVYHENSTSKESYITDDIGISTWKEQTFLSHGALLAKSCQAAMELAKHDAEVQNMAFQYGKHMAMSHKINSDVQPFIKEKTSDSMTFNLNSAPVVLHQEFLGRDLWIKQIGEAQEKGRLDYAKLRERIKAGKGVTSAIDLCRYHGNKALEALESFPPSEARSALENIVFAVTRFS
B5: Speckle-type POZ protein (Homo sapiens), O43791 (parent)
chain: B1 chain
partner: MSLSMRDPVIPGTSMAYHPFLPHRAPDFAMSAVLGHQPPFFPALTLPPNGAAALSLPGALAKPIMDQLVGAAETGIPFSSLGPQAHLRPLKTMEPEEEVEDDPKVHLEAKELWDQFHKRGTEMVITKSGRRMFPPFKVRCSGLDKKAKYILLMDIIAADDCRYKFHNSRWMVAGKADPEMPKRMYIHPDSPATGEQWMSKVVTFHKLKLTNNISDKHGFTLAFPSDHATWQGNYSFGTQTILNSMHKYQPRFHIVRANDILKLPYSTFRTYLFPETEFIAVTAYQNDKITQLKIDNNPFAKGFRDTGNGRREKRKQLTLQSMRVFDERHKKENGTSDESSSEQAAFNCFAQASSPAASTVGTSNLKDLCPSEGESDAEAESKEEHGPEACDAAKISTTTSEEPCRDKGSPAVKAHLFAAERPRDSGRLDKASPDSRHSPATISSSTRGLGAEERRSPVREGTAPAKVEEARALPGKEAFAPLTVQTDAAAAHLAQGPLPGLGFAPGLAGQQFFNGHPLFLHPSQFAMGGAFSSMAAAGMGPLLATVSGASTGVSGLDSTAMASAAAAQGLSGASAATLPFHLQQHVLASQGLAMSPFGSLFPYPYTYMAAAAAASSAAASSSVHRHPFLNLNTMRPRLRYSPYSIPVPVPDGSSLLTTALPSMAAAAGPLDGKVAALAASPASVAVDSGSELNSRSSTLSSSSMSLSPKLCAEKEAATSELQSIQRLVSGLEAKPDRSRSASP
B6: Speckle-type POZ protein (Homo sapiens), O43791 (parent)
chain: B1 chain
partner: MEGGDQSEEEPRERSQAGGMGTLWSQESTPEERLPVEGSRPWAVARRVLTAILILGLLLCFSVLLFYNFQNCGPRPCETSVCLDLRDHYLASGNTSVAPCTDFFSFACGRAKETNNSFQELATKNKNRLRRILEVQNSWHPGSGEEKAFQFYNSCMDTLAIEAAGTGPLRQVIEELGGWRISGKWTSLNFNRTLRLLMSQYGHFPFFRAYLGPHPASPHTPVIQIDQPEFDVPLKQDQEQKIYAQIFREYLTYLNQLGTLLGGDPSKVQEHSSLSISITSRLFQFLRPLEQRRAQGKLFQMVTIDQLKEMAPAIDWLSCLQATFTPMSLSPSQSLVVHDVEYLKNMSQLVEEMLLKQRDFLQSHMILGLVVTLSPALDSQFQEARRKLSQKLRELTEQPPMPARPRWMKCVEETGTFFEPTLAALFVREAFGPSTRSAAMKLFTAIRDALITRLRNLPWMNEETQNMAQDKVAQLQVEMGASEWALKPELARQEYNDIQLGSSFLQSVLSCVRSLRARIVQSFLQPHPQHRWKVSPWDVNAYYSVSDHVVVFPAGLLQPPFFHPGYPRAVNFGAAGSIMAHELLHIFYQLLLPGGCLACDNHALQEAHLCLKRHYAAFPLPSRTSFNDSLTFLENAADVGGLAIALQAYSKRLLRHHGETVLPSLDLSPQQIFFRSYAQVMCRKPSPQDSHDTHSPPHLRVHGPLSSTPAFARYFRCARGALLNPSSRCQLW
B7: Speckle-type POZ protein (Homo sapiens), O43791 (parent)
chain: B1 chain
partner: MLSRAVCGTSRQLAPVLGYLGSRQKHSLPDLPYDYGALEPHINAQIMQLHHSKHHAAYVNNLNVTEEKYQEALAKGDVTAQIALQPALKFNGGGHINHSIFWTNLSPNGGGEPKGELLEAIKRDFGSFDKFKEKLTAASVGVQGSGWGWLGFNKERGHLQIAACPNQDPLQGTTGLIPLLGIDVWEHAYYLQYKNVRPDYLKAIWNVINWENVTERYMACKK

Variants of: B1
Details: with s4a5_human SLC4A5, Q9BY07

Variant | effect of a mutation on the interaction
F133V | with no effect

Variants of: B1
Details: with s4a5_human SLC4A5, Q9BY07
Remark: another data set of the same source

Variant | effect of a mutation on the interaction
F133L | with no effect

Variants of: B1
Details: with s4a5_human SLC4A5, Q9BY07
Remark: another data set of the same source

Variant | effect of a mutation on the interaction
Y87C | with no effect

Variants of: B1
Details: with s4a5_human SLC4A5, Q9BY07
Remark: another data set of the same source

Variant | effect of a mutation on the interaction
F102C | with no effect

Variants of: B2
Details: with mycl_human MYCL

Variant | effect of a mutation on the interaction
Y87C | with no effect

Variants of: B2
Details: with mycl_human MYCL
Remark: another data set of the same source

Variant | effect of a mutation on the interaction
F133L | with no effect

Variants of: B3
Details: with rasf7_human RASSF7, Q02833

Variant | effect of a mutation on the interaction
F102C | with no effect

Variants of: B3
Details: with rasf7_human RASSF7, Q02833
Remark: another data set of the same source

Variant | effect of a mutation on the interaction
Y87C | with no effect

Variants of: B3
Details: with rasf7_human RASSF7, Q02833
Remark: another data set of the same source

Variant | effect of a mutation on the interaction
F133V | with no effect

Variants of: B3
Details: with rasf7_human RASSF7, Q02833
Remark: another data set of the same source

Variant | effect of a mutation on the interaction
F133L | with no effect

Variants of: B4
Details: with dlp1_human PDSS2, Q86YH6

Variant | effect of a mutation on the interaction
Y87C | with no effect

Variants of: B4
Details: with dlp1_human PDSS2, Q86YH6
Remark: another data set of the same source

Variant | effect of a mutation on the interaction
F133L | with no effect

Variants of: B5
Details: with tbx3_human TBX3, O15119

Variant | effect of a mutation on the interaction
F133L | with no effect

Variants of: B5
Details: with tbx3_human TBX3, O15119
Remark: another data set of the same source

Variant | effect of a mutation on the interaction
F133V | with no effect

Variants of: B5
Details: with tbx3_human TBX3, O15119
Remark: another data set of the same source

Variant | effect of a mutation on the interaction
Y87C | with no effect

Variants of: B5
Details: with tbx3_human TBX3, O15119
Remark: another data set of the same source

Variant | effect of a mutation on the interaction
F102C | with no effect

Variants of: B6
Details: with kell_human KEL

Variant | effect of a mutation on the interaction
Y87C | with no effect

Variants of: B6
Details: with kell_human KEL
Remark: another data set of the same source

Variant | effect of a mutation on the interaction
F133L | with no effect

Variants of: B6
Details: with kell_human KEL
Remark: another data set of the same source

Variant | effect of a mutation on the interaction
F133V | with no effect

Variants of: B7
Details: with sodm_human SOD2, P04179

Variant | effect of a mutation on the interaction
F102C | with no effect

Variants of: B7
Details: with sodm_human SOD2, P04179
Remark: another data set of the same source

Variant | effect of a mutation on the interaction
Y87C | with no effect

Variants of: B7
Details: with sodm_human SOD2, P04179
Remark: another data set of the same source

Variant | effect of a mutation on the interaction
F133V | with no effect
